Literature values as cited in PMC6535718.

Target: Bfd (Pseudomonas aeruginosa) (UniProt Q9HY80)
Sequence (Q9HY80 whole entry): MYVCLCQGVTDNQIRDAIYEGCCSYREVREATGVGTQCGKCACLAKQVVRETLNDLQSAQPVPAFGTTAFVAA

Chain of BfrB (Q9HY79 whole entry): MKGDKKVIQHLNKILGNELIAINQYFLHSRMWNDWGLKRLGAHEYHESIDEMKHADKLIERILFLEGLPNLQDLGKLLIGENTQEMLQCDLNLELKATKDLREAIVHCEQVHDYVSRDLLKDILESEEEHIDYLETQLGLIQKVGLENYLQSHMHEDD

For BfrB (from UniProt Q9HY79), the Kd is listed as 3.4 µM.
